Here are results for two molecules from patent US6248554, “DNA sequence coding for a BMP receptor” (The Procter & Gamble Company, dated 2001).

In general, Kd refers to the free concentration of one partner at which half of the binding sites on the other are occupied at equilibrium, for simple one-to-one binding. The low end stands for a tighter complex, the high end for a looser complex.

Sequences and labels used below:
T1: digit-removed BMP-2 (Homo sapiens (Human), UniProt P12643, 125I label by the chloramine-T method)
T1 sequence: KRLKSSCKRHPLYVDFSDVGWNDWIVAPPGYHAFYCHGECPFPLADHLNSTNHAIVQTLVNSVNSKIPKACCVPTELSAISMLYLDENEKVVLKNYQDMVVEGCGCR

T2: bone morphogenetic protein 2 (Homo sapiens (Human), UniProt P12643)
T2 sequence: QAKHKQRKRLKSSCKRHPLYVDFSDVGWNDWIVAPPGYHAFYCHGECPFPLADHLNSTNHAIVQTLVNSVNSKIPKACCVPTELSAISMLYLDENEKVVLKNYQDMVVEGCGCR

B1: bone morphogenetic protein 4 (ligand)
chain: SPKHHSQRARKKNKNCRRHSLYVDFSDVGWNDWIVAPPGYQAFYCHGDCPFPLADHLNSTNHAIVQTLVNSVNSSIPKACCVPTELSAISMLYLDEYDKVVLKNYQEMVVEGCGCR
modifications: 125I label by the chloramine-T method where used as tracer
B2: BMP receptor kinase protein-1 (receptor)
chain: QNLDSMLHGTGMKSDLDQKKPENGVTLAPEDTLPFLKCYCSGHCPDDAINNTCITNGHCFAIIEEDDQGETTLTSGCMKYEGSDFQCKDSPKAQLRRTIECCRTNLCNQYLQPTLPPVVIGPFFDGSIRWLVVLISMAVCIVAMIIFSSCFCYKHYCKSISSRGRYNRDLEQDEAFIPVGESLKDLIDQSQSSGSGSGLPLLVQRTIAKQIQMVRQVGKGRYGEVWMGKWRGEKVAVKVFFTTEEASWFRETEIYQTVLMRHENILGFIAADIKGTGSWTQLYLITDYHENGSLYDFLKCATLDTRALLKLAYSAACGLCHLHTEIYGTQGKPAIAHRDLKSKNILIKKNGSCCIADLGLAVKFNSDTNEVDIPLNTRVGTKRYMAPEVLDESLNKNHFQPYIMADIYSFGLIIWEMARRCITGGIVEEYQLPYYNMVPSDPSYEDMREVVCVKRLRPIVSNRWNSDECLRAVLKLMSECWAHNPASRLTALRIKKTLAKMVESQDVKI

The target of test [1] is B2. Briefly: whole cell binding of [125I]-BMP-4 (100 pM), nonspecific binding with 10 nM BMP-2, COS-7 cells transfected with pJT4-J159F. The protocol: The detached cells are pelleted in a tabletop centrifuge, then resuspended in fresh media at a concentration of 6.25 ×10^6 cells/ml. The cell suspension (5 ×10^6 cells, 0.8 ml) is transferred to the cuvette from a BioRad "GENE PULSER" electroporation system (BioRad, Hercules, Calif.). The purified DNA plasmid (10 μg) is added to the cuvette, and the cells subjected to electoporation at 4.0 kV/cm, with a capacitance of 25 μFd. Cells are then plated and allowed to recover. Fresh media is supplied after 24 hr. At 48 hr, cells are ready to be tested for binding of BMP-4.
(§1) For whole cell binding experiments, COS-7 cells are transfected with pJT4-J159F as described in example 7. After electroporation, cells are seeded in 12 well plates at 670,000 cells/ell. Media is changed after 24 hr, and binding experiments are carried out at 48 hr. At that time, cells are washed once with binding buffer (50 mM Hepes buffer, pH 7.4, 128 mM NaCl, 5 mM KCl, 5 mM MgSO_4, 1.2 mM CaCl_2, 2 mg/ml BSA), then equilibrated in the same buffer at 4° C. for 30 min with gentle shaking. […] The solubilized cells are then transferred to fresh tubes and counted in a Packard Model 5005 "COBRA" Gamma Counter (Packard Instrument Co., Downers Grove, Ill.).

The target of another test is T1, digit-removed BMP-2. Nature of the test: DSS crosslinking on transfected COS-7 cells, SDS-PAGE. The source says: (§2) In this method, the bifunctional crosslinking reagent disuccinimidyl suberate (DSS) (Pierce Chemical, Rockford, Ill.) is used to covalently crosslink bound radiolabeled ligand to its receptor by reaction with free amino groups on lysine residues in the two proteins. Following the crosslinking, cellular proteins are separated by gel electrophoresis, and radioactive bands visualized. The labeled bands represent the receptor selectively "tagged" with the radiolabeled ligand. In this procedure, cells are transfected with pJT4-J159F as described in example 7, then seeded into 12 well plates at 670,000 cells/well. Media is changed after 24 hr. At 48 hr after electroporation, the cells are washed, equilibrated, and incubated with [^125I]-BMP-4 or [^125I]-DRBMP-2 and competing unlabeled ligands as described in this example for whole cell binding studies.
(§3) After completion of the 4 hour incubation with ligand, the cells are washed three times at 4° C. with 2 ml of binding buffer having the same composition as described above, except that no BSA is added. To each well is then added 1 ml of fresh BSA-free binding buffer, followed by freshly prepared DSS to a final concentration of 135 μM. After swirling gently to mix the DSS, the plates are incubated for exactly 15 minutes at 4° C. with gentle shaking. […]

The target in test [2] is T2, bone morphogenetic protein 2. Nature of the test: competition: 10 nM unlabelled BMP-2 greatly reduces the band of [125I]-BMP-4 or [125I]-DR-BMP-2 crosslinked to BRK-1.
Excerpt: as §2, §3

Test [3] concerns the target B1. Briefly: saturation binding of [125I]-BMP-4 (10-1000 pM) on COS-7 cells transfected with BRK-1, nonspecific binding with 10 nM unlabelled BMP-4, LIGAND software. The method, then:
as §1, with “shaking. The buffer is then aspirated, and to each well is added 500 µl of binding buffer (4° C.), containing [^125I]-BMP-4 tracer (100 pM), as well as varying concentrations of unlabeled BMP-2, BMP-4, or other unlabeled ligand, depending on the assay. For determination of nonspecific binding, BMP-2 is added to the binding buffer at a final concentration of 10 nM.” for “shaking.”
In order to obtain a more quanitative characterization of binding to BRK-1, a saturation binding analysis is performed on COS-7 cells transfected with the cDNA for BRK-1, using the construct pJT4-J159F. Binding of [^125I]-BMP-4 is examined over a concentration range of 10–1000 pM, with nonspecific binding determined with 10 nM unlabeled BMP-4.

On to B1, for which the “specific binding relative to mock-transfected COS-7 cells” value in test [1] turned out to be 3 times.

For the molecule B2, the binding result (in the test with digit-removed BMP-2; in test [2]) was “binds” throughout. For the same molecule, the affinity in test [3], expressed as Kd, was 0.5 nM.
